According to US20200071424A1 (SHIONOGI, published 2020):
Changes are numbered by the printed parent chain. Blank lines part the entries; values can stand above or below the binder they belong to.

Legend:
[1] = target: T1, human [1-305]-mouse chimeric EL (human; mouse, UniProt Q9WVG5 306-500); assay: cell-based or functional assay
T1 sequence: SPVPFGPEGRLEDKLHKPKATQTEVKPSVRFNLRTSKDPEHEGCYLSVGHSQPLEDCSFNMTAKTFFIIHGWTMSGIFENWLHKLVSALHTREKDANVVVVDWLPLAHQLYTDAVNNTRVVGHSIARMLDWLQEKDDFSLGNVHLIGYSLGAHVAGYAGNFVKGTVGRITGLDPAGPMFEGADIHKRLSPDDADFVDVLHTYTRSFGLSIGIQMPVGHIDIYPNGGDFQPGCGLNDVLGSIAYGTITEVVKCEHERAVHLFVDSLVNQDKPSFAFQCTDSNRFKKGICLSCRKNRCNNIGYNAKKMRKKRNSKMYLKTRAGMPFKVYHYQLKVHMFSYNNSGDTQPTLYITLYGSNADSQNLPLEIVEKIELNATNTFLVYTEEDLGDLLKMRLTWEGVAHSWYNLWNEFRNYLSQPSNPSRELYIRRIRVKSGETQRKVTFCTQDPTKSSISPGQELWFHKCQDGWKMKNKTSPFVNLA

[2] = target: T1, human [1-305]-mouse chimeric EL; assay: Biacore; EL captured by anti-C2-tag Ab; bivalent fit
Method: The binding affinities of anti-EL antibodies were measured using Biacore. […] Then, anti-EL humanized antibodies were added and the binding affinities were calculated by bivalent fitting of BIAevaluation software.

- Neutralizing activity IC50 [1]: 9 nM
B1: h13B3-S2 (antibody, V domains shown)
VH: QVQLVQSGAEVKKPGASVKVSCKASGYTFTEYTMHWVRQAPGQGLEWMGSINPYYGGTSYNEKFKDRVTSTRDTSISTAYMELSRLRSDDTVVYYCARYGNYVGYFDYWGQGTTVTVSS
VL: EIVLTQSPGTLSLSPGERATLSCRASSSVHYMYWYQQKPGQAPRLLIYYTSNLAPGIPDRFSGSGSGTDFTLTISRLEPEDFAVYYCQQFTSSPYTFGGGTKVEIK

- Neutralizing activity IC50 [1]: 2.6 nM
B2: h13B3-S4 (antibody, V domains shown)
VH: B1 VH
VL: B1 VL with G9A, D59A, R76S

- Neutralizing activity IC50 [1]: 2.1 nM
B3: h13B3-S3 (antibody, V domains shown)
VH: B1 VH with S70M, I76T, A79V, R85S, D89E, V92A
VL: B1 VL with G9A, D59A, R76S

- Neutralizing activity IC50 [1]: 1.2 nM
- Kd [2]: 1 nM
- koff [2]: 5.7e-05 s⁻¹
- kon [2]: 54000 M⁻¹ s⁻¹
B4: h16B3-S5 (antibody, V domains shown)
VH: EVQLVESGGGLVQPGGSLRLSCAASGFTFSGYTMSWVRQAPGKGLEWVSEISFARDRAFYPDTVKGRFTISRDNSKNTLYLQMNSLRAEDTAVYYCARLGGKNRDFWYFDLWGQGTTVTVSS
VL: DIVMTQSPDSLAVSLGERATINCRASESVEYYGTSLMQWYQQKPGQPPKLLIYAASNVESGVPDRFSGSGSGTDFTLTISSLQAEDVAVYYCQQSWKVPFTFGQGTKLEIK
notes: humanized

- Neutralizing activity IC50 [1]: 2.7 nM
B5: h16B3-S1 (antibody, V domains shown)
VH: B4 VH with R98K, K102R, R104H, F106Y, L111V
VL: B4 VL

- Neutralizing activity IC50 [1]: 2.3 nM
- Kd [2]: 5.2 nM
- koff [2]: 0.0002 s⁻¹
- kon [2]: 38000 M⁻¹ s⁻¹
B6: h16B3-F1 (antibody, V domains shown)
VH: B4 VH with K102R, R104H, F106Y, L111V
VL: DIQMTQSPSSLSASVGDRVTITCRASESVEYYGTSLMQWYQQKPGKAPKLLIYAASNVESGVPSRFSGSGSGTDFTLTISSLQPEDFATYYCQQSWKVPFTFGQGTKLEIK
notes: humanized

- Neutralizing activity IC50 [1]: 2.4 nM
- Kd [2]: 3.8 nM
- koff [2]: 0.00011 s⁻¹
- kon [2]: 29000 M⁻¹ s⁻¹
B7: h16B3-F2 (antibody, V domains shown)
VH: B4 VH with K102R, R104H, F106Y, L111V
VL: EIVMTQSPATLSVSPGERATLSCRASESVEYYGTSLMQWYQQKPGQAPRLLIYAASNVESGIPARFSGSGSGTEFTLTISSLQSEDFAVYYCQQSWKVPFTFGQGTKLEIK
notes: humanized

- Neutralizing activity IC50 [1]: 1 nM
- Kd [2]: 1 nM
- koff [2]: 5.8e-05 s⁻¹
- kon [2]: 60000 M⁻¹ s⁻¹
B8: h16B3-S6 (antibody, V domains shown)
VH: B4 VH
VL: B4 VL with K97R
notes: humanized

- Neutralizing activity IC50 [1]: 1.4 nM
- Kd [2]: 0.78 nM
- koff [2]: 4e-05 s⁻¹
- kon [2]: 52000 M⁻¹ s⁻¹
B9: h16B3-S8 (antibody, V domains shown)
VH: B4 VH with G31A, E50D
VL: B4 VL with K97R
notes: humanized

- Neutralizing activity IC50 [1]: 2 nM
- Kd [2]: 10 nM
- koff [2]: 0.0002 s⁻¹
- kon [2]: 19000 M⁻¹ s⁻¹
B10: h16B3-F3 (antibody, V domains shown)
VH: B4 VH with K102R, R104H, F106Y, L111V
VL: B7 VL with M4L, A9G, V13L, A64D, E74D, S81R, Q83E, S84P
notes: humanized

- Neutralizing activity IC50 [1]: 1.9 nM
- Kd [2]: 4.5 nM
- koff [2]: 0.00013 s⁻¹
- kon [2]: 30000 M⁻¹ s⁻¹
B11: h16B3-S3 (antibody, V domains shown)
VH: B4 VH with R104H, L111V
VL: B4 VL
notes: humanized

- Neutralizing activity IC50 [1]: 1.7 nM
- Kd [2]: 3 nM
- koff [2]: 0.00018 s⁻¹
- kon [2]: 61000 M⁻¹ s⁻¹
B12: h16B3-S4 (antibody, V domains shown)
VH: B4 VH with R104H, L111V
VL: B4 VL with K97R
notes: humanized

- Neutralizing activity IC50 [1]: 1.4 nM
- Kd [2]: 1.2 nM
- koff [2]: 5.9e-05 s⁻¹
- kon [2]: 50000 M⁻¹ s⁻¹
B13: h16B3-S7 (antibody, V domains shown)
VH: B4 VH with G31A, E50D
VL: B4 VL
notes: humanized

- Neutralizing activity IC50 [1]: 1.3 nM
- Kd [2]: 0.11 nM
- koff [2]: 1.6e-05 s⁻¹
- kon [2]: 140000 M⁻¹ s⁻¹
B14: h55A1-F5 (antibody, V domains shown)
VH: QVQLVQSGAEVKKPGASVKVSCKASGYTFTNYGMNWVRQAPGQGLEWMGWINTYSGVPTYAGDFKGRFTFTLDTSTSTAYMELSSLRSEDTAVYYCARRGYYGRRYFDVWGKGTTVTVSS
VL: DIQLTQSPSSLSASVGDRVTITCKASQSVDYDVDSYMHWYQQKPGKAPKLLIYAASNLASGVPSRFSGSGSGTDFTLTISSLQPEDFATYYCQQTIEDPPTFGGGTKVEIK
notes: humanized

- Neutralizing activity IC50 [1]: 2.1 nM
- Kd [2]: 0.17 nM
- koff [2]: 2.6e-05 s⁻¹
- kon [2]: 160000 M⁻¹ s⁻¹
B15: h55A1-F2 (antibody, V domains shown)
VH: B14 VH with F68V, F70M, L72T, S84R, E89D
VL: EIVMTQSPATLSVSPGERATLSCKASQSVDYDVDSYMHWYQQKPGQAPRLLIYAASNLASGIPARFSGSGSGTEFTLTISSLQSEDFAVYYCQQTIEDPPTFGGGTKVEIK
notes: humanized

- Neutralizing activity IC50 [1]: 1.9 nM
- Kd [2]: 0.084 nM
- koff [2]: 1.7e-05 s⁻¹
- kon [2]: 200000 M⁻¹ s⁻¹
B16: h55A1-F1 (antibody, V domains shown)
VH: B14 VH with A9S, V11L, T69V, T71S, T76V, M81L, E82Q, L83I, R87K, S88A
VL: B14 VL with L77F, F87I
notes: humanized

- Neutralizing activity IC50 [1]: 1.1 nM
- Kd [2]: 0.29 nM
- koff [2]: 3.3e-05 s⁻¹
- kon [2]: 110000 M⁻¹ s⁻¹
B17: h55A1-F3 (antibody, V domains shown)
VH: B14 VH with F68V, F70M, L72T, S84R, E89D
VL: B14 VL
notes: humanized

- Neutralizing activity IC50 [1]: 2 nM
B18: h23H8-S3 (antibody, V domains shown)
VH: QVQLVQSGAEVKKPGASVKVSCKASGYTFTDNTIHWVRQAPGQGLEWMGHINPYYGGTNNNEKFKDRVTMTRDTSISTAYMELSRLRSDDTAVYYCARKGIYYSSPFDYWGQGTTVTVSS
VL: DIQMTQSPSSLSASVGDRVTITCRASQDINNYLNWYQQKPGKAPKLLISYTSKLHSGVPSRFSGSGSGTDFTLTISSLQPEDFATYYCQQGNTLPFTFGQGTKLEIK

- Neutralizing activity IC50 [1]: 1.1 nM
- Kd [2]: 3 nM
- koff [2]: 0.00024 s⁻¹
- kon [2]: 80000 M⁻¹ s⁻¹
B19: h55A1-S4 (antibody, V domains shown)
VH: QVQLVQSGSELKKPGASVKVSCKASGYTFTNYAMNWVRQAPGQGLEWMGWINTYSGVGTYAGDFKGRFVFSLDTSVSTAYLQISSLKAEDTAVYYCARRGFYGRRFFDVWGKGTTVTVSS
VL: DIVLTQSPASLAVSPGQRATITCKASQSVDYDVDSYMHWYQQKPGQPPKLLIYAASNLASGVPARFSGSGSGTDFTLTINPVEANDTANYYCQQTIEDPPTFGGGTKVEIK
notes: humanized

- Neutralizing activity IC50 [1]: 1.1 nM
- Kd [2]: 11 nM
- koff [2]: 0.00037 s⁻¹
- kon [2]: 35000 M⁻¹ s⁻¹
B20: h55A1-S2 (antibody, V domains shown)
VH: B19 VH with A33G, M34L, G58P, F101Y
VL: B19 VL
notes: humanized

- Neutralizing activity IC50 [1]: 1.2 nM
- Kd [2]: 1.4 nM
- koff [2]: 6.3e-05 s⁻¹
- kon [2]: 47000 M⁻¹ s⁻¹
B21: h55A1-S6 (antibody, V domains shown)
VH: B19 VH with M34L, D63E
VL: B19 VL
notes: humanized

- Neutralizing activity IC50 [1]: 1.2 nM
- Kd [2]: 4.2 nM
- koff [2]: 0.00051 s⁻¹
- kon [2]: 120000 M⁻¹ s⁻¹
B22: h55A1-S3 (antibody, V domains shown)
VH: B19 VH with A33G, M34L, G58P, F101Y
VL: B19 VL with Q94N
notes: humanized

- Neutralizing activity IC50 [1]: 1.3 nM
- Kd [2]: 12 nM
- koff [2]: 0.00033 s⁻¹
- kon [2]: 27000 M⁻¹ s⁻¹
B23: h55A1-S5 (antibody, V domains shown)
VH: B19 VH
VL: B19 VL with Q94N
notes: humanized

- Neutralizing activity IC50 [1]: 1 nM
- Kd [2]: 5.1 nM
- koff [2]: 0.00055 s⁻¹
- kon [2]: 110000 M⁻¹ s⁻¹
B24: h55A1-S7 (antibody, V domains shown)
VH: B19 VH with M34L, D63E
VL: B19 VL with Q94N
notes: humanized

- Neutralizing activity IC50 [1]: 2.7 nM
B25: h53A11-S2 (antibody, V domains shown)
VH: QVQLVQSGAEVKKPGASVKVSCKASGYTFTDYTMHWVRQAPGQRLEWMGGINPYYGGTTYNEKFKDRVTITRDTSASTAYMELSSLRSEDTAVYYCAKGDYYGGSYNYWGQGTTVTVSS
VL: EIVMTQSLATLSVSPGERATLSCRASQDISNSLHWYQQKPGQAPRLLIYYASQSISGIPARFSGSGSGTEFTLTISSLQSEDFAVYYCQQSNSWPYTFGQGTKLEIK

- Neutralizing activity IC50 [1]: 1.8 nM
B26: h53A11-S3 (antibody, V domains shown)
VH: B25 VH
VL: B25 VL with L8P, Y49K
